The source of these data is US20200131270A1 (NATIONAL UNIVERSITY CORPORATION HOKKAIDO UNIVERSITY, published 2020).

One test deals with T1, canine CD80-Ig (canine; rabbit).
T1 construct: extracellular domain;domain: Fc; also called cCD80-Ig; cCD80
In words: SPR (Biacore X100): cPD-L1-His captured by anti-histidine antibody on CM5 chip, canine CD80-Ig as analyte. In general terms: Surface plasmon resonance follows binding to a sensor surface in real time, without labels.

The next test concerns the target T2, canine PD-1-Ig (canine; rabbit).
T2 construct: extracellular domain;domain: Fc; also called cPD-1-Ig; cPD-1
In words: SPR (Biacore X100): cPD-L1-His captured by anti-histidine antibody on CM5 chip, canine PD-1-Ig as analyte.

B1: canine PD-L1-His (ligand)
chain: FTITVSKDLYVVEYGGNVTMECKFPVEKQLNLFALIVYWEMEDKKIIQFVNGKEDLKVQHSSYSQRAQLLKDQLFLGKAALQITDVRLQDAGVYCCLIGYGGADYKRITLKVHAPYRNISQRISVDPVTSEHELMCQAEGYPEAEVIWTSSDHRVLSGKTTITNSNREEKLFNVTSTLNINATANEIFYCTFQRSGPEENNTAELVIPERLPVPASERTH
As usually defined, the Kd is the constant that tells how readily two partners part at equilibrium. A low value points to tighter binding. For the molecule B1, the equilibrium dissociation constant (Kd) amounted to 24.3 nM with canine CD80-Ig and 25.4 nM in the test with canine PD-1-Ig.
